{
  "source": "paper PMC7515910",
  "about": "“Functional genetic encoding of sulfotyrosine in mammalian cells” (Nature Communications, 2020)",
  "proteins": {"B1": {"name": "evolved sTyrRS amino acid activation domain (a.a. 1-322) (enzyme, E. coli, UniProt P0AGJ9 1-322, looked up)", "chain": "MASSNLIKQLQERGLVAQVTDEEALAERLAQGPIALYCGFDPTADSLHLGHLVPLLCLKRFQQAGHKPVAVVGGATGLIGDPSFKAAERKLNTEETVQEWVDKIRKQVAPFLDFDCGENSAIAANNYDFFGNMNVLTFLRDIGKHFSVNQMINKEAVKQRLNREDQGISFTEFSYNLLQGYGFACLNKQYGVVLQIGGSDQWGNITSGIDLTRRLHQNQVFGLTVPLITKADGTKFGKTEGGAVWLDPKKTSPYKFYQFWINTADADVYRFLKFFTFMSIEEINALEEEDKNSGKAPRAQYVLAEQVTRLVHGEEGLQAAKR", "notes": "Y37 unchanged; Crystallised in complex with the small molecule sulfotyrosine (2 mM); also called sTyrRS (1-322); sTyrRS1-322; source: E. coli BL21(DE3), purified (Ni resin, Ulp1 cleavage, Superdex 200 gel filtration); not shown: 6xHis, N-terminal, cleaved; SUMO, N-terminal, cleaved"}},
  "target": "the molecule itself",
  "test": "crystal structure; sTyrRS (a.a. 1-322, 9 mg/mL) with 2 mM sulfotyrosine; sitting drop vapor diffusion at 15 °C; ammonium sulfate (2.2 M), PEG 400 (2.5-3%), HEPES (0.1 M, pH 7.5); 1.78 Å",
  "data": [
    {"protein": "B1", "values": [
      {"measurement": "stoichiometry N", "value": 2}
    ]}
  ]
}
